Assays:
[1] = molecular target: bovine lung-derived ANP receptor (bovine); assay: competition radioligand binding: displacement of 125I-rat ANP from bovine lung membrane fraction, filter assay
[2] = molecular target: BK receptor derived from guinea pig ilea (guinea pig); assay: competition radioligand binding: inhibition of 3H-BK (200 pM) binding to guinea pig ileum membrane fraction; test compound at 10^-7 M
[3] = molecular target: BK receptor derived from guinea pig ilea (guinea pig); assay: competition radioligand binding: inhibition of 3H-BK (200 pM) binding to guinea pig ileum membrane fraction; test compound at 10^-8 M

Sequence of bovine lung-derived ANP receptor (bovine) (P10730 42-537): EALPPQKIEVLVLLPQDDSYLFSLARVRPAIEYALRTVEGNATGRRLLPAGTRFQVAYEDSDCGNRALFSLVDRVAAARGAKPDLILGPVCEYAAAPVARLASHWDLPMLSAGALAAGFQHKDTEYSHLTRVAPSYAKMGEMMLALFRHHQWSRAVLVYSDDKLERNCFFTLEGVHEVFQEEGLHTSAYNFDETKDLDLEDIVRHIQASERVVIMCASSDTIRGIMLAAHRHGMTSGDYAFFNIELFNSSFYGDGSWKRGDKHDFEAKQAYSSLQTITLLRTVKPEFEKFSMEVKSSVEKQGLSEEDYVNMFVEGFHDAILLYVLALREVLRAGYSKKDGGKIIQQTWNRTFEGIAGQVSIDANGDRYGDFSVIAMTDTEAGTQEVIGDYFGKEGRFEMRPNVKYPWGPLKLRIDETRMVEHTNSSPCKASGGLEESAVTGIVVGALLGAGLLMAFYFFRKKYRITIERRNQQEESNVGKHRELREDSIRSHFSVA
Sequence of BK receptor derived from guinea pig ilea (guinea pig) (O70526 whole entry): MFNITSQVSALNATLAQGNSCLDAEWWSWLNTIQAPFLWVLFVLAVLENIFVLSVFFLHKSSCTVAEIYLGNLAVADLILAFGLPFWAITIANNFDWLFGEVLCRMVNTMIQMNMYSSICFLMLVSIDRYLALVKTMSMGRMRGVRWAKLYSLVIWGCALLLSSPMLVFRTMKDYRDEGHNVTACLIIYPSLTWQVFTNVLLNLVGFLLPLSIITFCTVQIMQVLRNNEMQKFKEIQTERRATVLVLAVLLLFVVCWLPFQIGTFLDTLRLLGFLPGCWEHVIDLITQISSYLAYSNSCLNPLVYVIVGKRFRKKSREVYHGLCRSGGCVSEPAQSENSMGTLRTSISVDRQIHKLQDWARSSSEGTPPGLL

Substance: compound (h) (H-Ala-Phe-Gly-Gly-Arg-Ile-Asp-Arg-Ile-Gly-Ala-Ala-NH2) (peptide)
- IC50 [1]: 2.5 nM

Substance: compound (g) (H-Phe-Gly-Gly-Arg-Ile-Asp-Arg-Ile-NH2) (peptide)
- IC50 [1]: 3.5 nM

Substance: compound (m) (H-D-Arg-Arg-Pro-Hyp-Gly-Phe-Ser-D-Phe-Leu-Arg-OH) (peptide)
- Percentage inhibition (%) [2]: 68%
- Percentage inhibition (%) [3]: 20%

Substance: compound (k) (H-Phe-Gly-Gly-Arg-(N-Me)Ile-Asp-Arg-Ile-NH2) (peptide)
- IC50 [1]: 21 nM

From patent EP0672680A1
